Assay results: paper PMC11259706 (The Journal of Biological Chemistry, 2024)
Primed or numbered codes have the meaning given here. Where no end group is shown, it is not given here. 5FAM′ = 5-carboxyfluorescein; Ahx = NCCCCCC(=O)O

Experiments:
full-length PP5 [1] = biological target: T1, full-length PP5 (Homo sapiens, UniProt P53041); test: FP competition studies; type: binding; details: for affinity relative to natural MEEVD in competition FP: acetylated pentapeptides competing with Hsp90 tracer, n = 4
T1 construct: His-tag with TEV cleavage site (N, cleaved yes); made in house; host or cells: Escherichia coli BL21 (DE3)
T1 sequence (P53041 1-499): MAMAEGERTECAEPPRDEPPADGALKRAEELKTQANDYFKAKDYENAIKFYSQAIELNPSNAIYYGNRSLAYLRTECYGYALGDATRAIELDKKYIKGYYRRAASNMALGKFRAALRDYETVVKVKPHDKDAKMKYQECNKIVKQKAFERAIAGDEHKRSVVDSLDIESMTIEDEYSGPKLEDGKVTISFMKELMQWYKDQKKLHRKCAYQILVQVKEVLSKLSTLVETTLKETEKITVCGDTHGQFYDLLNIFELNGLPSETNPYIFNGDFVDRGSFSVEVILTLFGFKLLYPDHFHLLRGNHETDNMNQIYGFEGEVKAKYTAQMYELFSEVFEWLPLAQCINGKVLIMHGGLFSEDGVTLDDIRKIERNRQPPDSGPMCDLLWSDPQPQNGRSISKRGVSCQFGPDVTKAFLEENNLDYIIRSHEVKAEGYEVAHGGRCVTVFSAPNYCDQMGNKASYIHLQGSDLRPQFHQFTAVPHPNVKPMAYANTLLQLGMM
Method: (§1) These probes were stored as 10 mM DMSO stocks at −30 °C. […] Each well received PP5 (5 μl) from a 3-fold dilution series prepared using the assay buffer. […] The plate was shielded from light and allowed to incubate at room temperature for 15 min, a duration determined to reach equilibrium during assay development. All experiments were conducted in 384-well, black, low-volume, round-bottom plates (Corning; catalog number = 4511). […] Data analysis was carried out using GraphPad Prism 6.
Samples were incubated for 5 min prior to measurements. Results were analyzed as above.

HEK293T cells = test: Global translation assay; type: cell-based; details: 50 μg/ml, compared to DMSO control, three independent replicates
Method: HEK293T cells (ATCC) were cultured in Dulbecco’s Modified Eagle Medium supplemented with 10% fetal bovine serum and 1% penicillin/streptomycin. These cells were maintained at 37 °C/5% CO2 in a humidified incubator. Cells were negative for mycoplasma contamination (MicroSeq; ThermoFisher Scientific) at the start of the experiments, and they were used without further authentication.
The global translation assay (Abcam; ab273286) was used to measure protein synthesis according to the manufacturer’s specifications. Briefly, in this method, O-propargyl-puromycin is used to trap actively translating ribosomes, followed by addition of a fluorescent Click probe, such that suppression of translational is measured as a decrease in fluorescence. HEK293T cells or HEK293T cells overexpressing FLAG-PP5 were cultured as above. Cells were incubated with the supplied protein label reagent and incubated for 24 h, after which the cells were washed with culture media and fixed/permeabilized for 15 min in the dark. Click reactions were carried out for 30 min, and the plate fluorescence measured at Ex/Em 494/521 nm in a SpectraMax M5 multimode plate reader.

full-length PP5 [2] = biological target: T1, full-length PP5; test: Fluorescence polarization (FP) saturation binding of fluorescent tracers; details: for direct binding of tracer relative to natural sequence: FP direct binding, n = 4
Method: as §1

PP5 = biological target: T2, PP5 (Homo sapiens, UniProt P53041); test: pNPP colorimetric phosphatase assay; type: biochemical; details: peptide 100 μM
T2 construct: His-tag with TEV cleavage site (N, cleaved yes); made in house; host or cells: Escherichia coli BL21 (DE3)
T2 sequence (P53041 1-499): T1 sequence (P53041 1-499)
Method: To measure PP5’s enzyme activity, pNPP was used as substrate, as previously described ([24], [42]). Briefly, purified PP5 (1 μM) was incubated with peptides (100 μM) in 40 mM Hepes, 20 mM KCl, 5 mM MnCl2, and 1 mM DTT, pH 7.5 at 20 °C in 96-well microtiter plates (total volume 50 μl). Reactions were then initiated by addition of the pNPP substrate at concentrations from 0 to 60 mM. After 30 min, reactions were quenched with 2N NaOH (100 μl), and the release of p-nitrophenol was recorded at 410 nm (ε = 15,100 M − 1 cm−1) on a Molecular Devices M5 plate reader. Enzyme parameters (e.g., Km, kcat) were calculated using the Michaelis–Menten equation in Graphpad Prism 6.

[3] = biological target: protein phosphatase 5 (PP5), human, full-length (human) (UniProt P53041); test: fluorescence polarisation; competition (Fig. 1B, C, E, F): unlabelled peptide varied, PP5 at a concentration equivalent to the Kd, tracer 20 nM (tracer not named for these panels), 5 min
[4] = biological target: T3, protein phosphatase 5 (PP5), human, full-length (human, UniProt P53041 1-499); test: cell-based or functional assay
T3 sequence (looked up): T1 sequence (P53041 1-499)

[5] = biological target: T4, protein phosphatase 5 (PP5), human, full-length (human, UniProt P53041 1-499); test: FP
T4 chain: T1 sequence (P53041 1-499)

[6] = biological target: T3, protein phosphatase 5 (PP5), human, …; test: fluorescence polarisation; saturation binding: tracer 20 nM, 3-fold dilution series of PP5; 50 mM Hepes, 75 mM NaCl, 0.001% Triton X-100, pH 7.4; room temperature, 15 min; details: both partners purified
[7] = biological target: T3, protein phosphatase 5 (PP5), human, …; test: fluorescence polarisation; competition with the Hsp90 tracer (Fig. 2C): PP5 at a concentration equivalent to the Kd, tracer 20 nM, 5 min; details: both partners purified

Question: For “Ac-GSGPTAEEVD [Hsp70 peptide, P5 isoleucine mutation]”, which Ki (full-length PP5 [1]; read-out: Ki, FP competition (truncations and alanine scan)) is on record?
Answer: The Ki was about 13600 nM.

Question: How did the decrease in translation (HEK293T cells) turn out when C[C@@H]1C[C@@H]([C@H](O)CC2CC(=O)NC(=O)C2)C(=O)[C@@H](C)C1 [cycloheximide] was run?
Answer: The decrease in translation was 40%.

Question: With 5FAM-AHX-WDDPD as the molecule, how does the “direct binding of tracer relative to natural sequence” value (full-length PP5 [2]) read?
Answer: Its value is “bound tighter than the natural sequence”.

Question: Which results are given for LSLLD [LSLLD]?
Answer: Kd (full-length PP5 [2]; restates Fig. 5B, measured with tracer 5FAM-AHX-LSLLD, read-out: Kd of ELP1 C-terminal motif for PP5's TPR domain (restated)): ~4000 nM; effect on Km of PP5 (PP5; pNPP substrate): both the kcat and Km were improved

Question: For LSLLA, which “effect on PP5 enzyme activity” value (PP5; DMSO 1%) is on record?
Answer: Its value is “did not”.

Question: What about the “competition with ELP1 tracer for binding to PP5” value (full-length PP5 [1]; tracer 5FAM-AHX-LSLLD, unlabeled peptide, three independent experiments in technical triplicates) of the same molecule?
Answer: Its value is “completely suppressed binding”.

Question: Which Ki [3] does the source give for “Hsp70 peptide with the P5 isoleucine replaced by alanine” here?
Answer: Its Ki is 13600 nM.

Question: With “WDDLD [optimized acetylated pentapeptide]” as the molecule, how does the “affinity relative to natural MEEVD in competition FP” value (full-length PP5 [1]) read?
Answer: The value was “tighter affinity than the natural MEEVD”.

Question: 5FAM-AHX-WDDID was tested. Which “direct binding of tracer relative to natural sequence” value (full-length PP5 [2]) did it give?
Answer: Its value is “bound tighter than the natural sequence”.

Question: How did the “affinity relative to natural MEEVD in competition FP” value (full-length PP5 [1]) turn out when “WEEVD [optimized acetylated pentapeptide]” was run?
Answer: Its value is “tighter affinity than the natural MEEVD”.

B1: optimized acetylated pentapeptide WDDVD (peptide)
peptide: Ac-WDDVD
Question: How did the “kcat of PP5 phosphatase activity on pNPP with peptide (100 μM); 2.5-fold” value [4] turn out when B1 was run?
Answer: Its value is 0.24 s⁻¹.

Question: What about the Ki [5] of the same molecule?
Answer: Its Ki is 30 nM.

B2: fluorescent tracer 5FAM-AHX-WDDID (peptide)
peptide: {5FAM′-Ahx}-WDDID
notes: also called WDDID tracer; source: synthetic peptide
Question: Does B2 bind [6]?
Answer: Result: binds

B3: fluorescent tracer 5FAM-AHX-WDDPD (peptide)
peptide: {5FAM′-Ahx}-WDDPD
notes: also called WDDPD tracer; source: synthetic peptide
Question: Does B3 bind [6]?
Answer: Result: binds

B4: optimized acetylated pentapeptide WDDID (peptide)
peptide: Ac-WDDID
notes: optimized EEVD-like pentapeptide from the PSSCL screen; source: synthetic peptide
Question: Which results are given for B4?
Answer: binding result [7]: binds; Ki [5]: 60 nM

B5: optimized acetylated pentapeptide WDDLD (peptide)
peptide: Ac-WDDLD
notes: as for B4
Question: Does B5 bind [7]?
Answer: Result: binds

B6: optimized acetylated pentapeptide WDDPD (peptide)
peptide: Ac-WDDPD
notes: as for B4
Question: Does B6 bind [7]?
Answer: Result: binds

Question: And the Ki [5]?
Answer: Its Ki is 40 nM.

B7: ELP1 C-terminal pentapeptide LSLLD (unlabelled) (peptide)
peptide: LSLLD
Question: How did the “kcat/Km of PP5 phosphatase activity on pNPP with peptide (100 μM); 0.49 μM^−1sec^−1 without peptide” value [4] turn out when B7 was run?
Answer: The value was 1.28 μM^−1sec^−1.

B8: Hsp70 tracer 5FAM-AHX-IEEVD (peptide)
peptide: {5FAM′-Ahx}-IEEVD
notes: also called Hsp70 IEEVD tracer; source: synthetic peptide, custom synthesized by GenScript
Question: For B8, which Kd [6] is on record?
Answer: The Kd was 941 ± 70 nM.

B9: fluorescent tracer 5FAM-AHX-WEEVD (peptide)
peptide: {5FAM′-Ahx}-WEEVD
notes: also called WEEVD tracer; source: synthetic peptide
Question: How did the Kd [6] turn out when B9 was run?
Answer: Its Kd is 15 ± 10 nM.

B10: fluorescent tracer 5FAM-AHX-WDDVD (peptide)
peptide: {5FAM′-Ahx}-WDDVD
notes: also called WDDVD tracer; source: synthetic peptide
Question: Which Kd [6] does the source give for B10 here?
Answer: Its Kd is 17 ± 10 nM.

B11: ELP1 tracer 5FAM-AHX-LSLLD (peptide)
peptide: {5FAM′-Ahx}-LSLLD
notes: C-terminal five amino acids of elongator acetyltransferase complex subunit 1 (ELP1; IKBKAP); also called LSLLD tracer; source: synthetic peptide
Question: For B11, which Kd [6] is on record?
Answer: The Kd was 4400 ± 800 nM.

B12: fluorescent tracer of the DDCP C-terminal sequence WKPVD (peptide)
peptide: WKPVD
modifications: also: fluorescent label (tracer), position not given here
notes: the label DDCP could not be tied to an entry; Probably 5FAM-AHX-labelled like the ELP1 tracer; also called DDCP tracer; source: synthetic peptide
Question: For B12, which Kd [6] is on record?
Answer: Its Kd is over 100000 nM.

B13: fluorescent tracer of the U520 C-terminal five amino acids (peptide)
chain: DSDSD
modifications: fluorescent label (tracer)
Question: B13 was tested. Which Kd [6] did it give?
Answer: Its Kd is over 100000 nM.

B14: fluorescent tracer of the AGO1 C-terminal five amino acids (negative control) (peptide)
chain: TMYFA
modifications: fluorescent label (tracer)
Question: B14 was tested. Which Kd [6] did it give?
Answer: Its Kd is over 100000 nM.
